According to publication PMC4807065:

Target: large catalase (CAT) from Aspergillus terreus MTCC 6324 (Aspergillus terreus MTCC 6324)
Experiment: SEC; HiPrep Sephacryl S-300 HR column, 50 mM sodium phosphate buffer pH 7.5; native mass against gel filtration standards (29-669 kDa), compared with the subunit mass from SDS-PAGE

- stoichiometry N: 4
Substance: large catalase (CAT) from Aspergillus terreus MTCC 6324 (enzyme)
